The target of assay [1] is T1, ヒトTFPI(American Diagnostica) (human, UniProt P10646 29-304, limits assumed).
T1 construct: Coated on plates (ELISA) or coupled to a CM5 chip (Biacore); also called human TFPI; hTFPI
T1 sequence (looked up): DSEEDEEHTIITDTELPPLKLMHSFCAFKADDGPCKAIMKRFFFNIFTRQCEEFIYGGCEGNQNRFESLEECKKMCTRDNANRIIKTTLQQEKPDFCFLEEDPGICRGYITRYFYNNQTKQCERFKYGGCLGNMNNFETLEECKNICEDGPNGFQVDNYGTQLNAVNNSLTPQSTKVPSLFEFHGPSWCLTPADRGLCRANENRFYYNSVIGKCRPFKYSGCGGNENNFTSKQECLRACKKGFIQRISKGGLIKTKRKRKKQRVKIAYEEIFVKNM
In words: ELISA screen of Fab lysates on coated human TFPI.

In assay [2] the target is T1, ヒトTFPI(American Diagnostica). In words: ELISA on coated human TFPI.
Assay [3] deals with T2, マウスTFPI(R&D System) (mouse, UniProt O54819 29-289, limits assumed).
T2 construct: also called mouse TFPI; mTFPI
T2 sequence (looked up): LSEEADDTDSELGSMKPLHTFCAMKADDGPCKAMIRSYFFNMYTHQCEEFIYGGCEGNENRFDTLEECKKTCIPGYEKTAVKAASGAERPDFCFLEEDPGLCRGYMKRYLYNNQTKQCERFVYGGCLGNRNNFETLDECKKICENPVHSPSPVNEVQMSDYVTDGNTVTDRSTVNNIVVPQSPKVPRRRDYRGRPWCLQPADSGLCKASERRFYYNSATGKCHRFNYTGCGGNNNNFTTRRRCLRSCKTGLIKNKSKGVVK
In words: ELISA on coated mouse TFPI.

For assay [4], the target named is T2, マウスTFPI(R&D System). Put plainly: ELISA on coated mouse TFPI, IgG against Fab.
Assay [5] concerns the target T1, ヒトTFPI(American Diagnostica). In words: ELISA on coated human TFPI, IgG against Fab.

B1: TP-4B7 (Fab, V domains shown)
VH: QVQLQQSGPGLVKPSQTLSLTCAISGDSVSSNSAAWSWIRQSPGRGLEWLGIIYKRSKWYNDYAVSVKSRITINPDTSKNQFSLQLNSVTPEDTAVYYCARWHSDKHWGFDYWGQGTLVTVSS
VL: DIVMTQSPLSLPVTPGEPASISCRSSQSLVFSDGNTYLNWYLQKPGQSPQLLIYKGSNRASGVPDRFSGSGSGTDFTLKISRVEAEDVGVYYCQQYDSYPLTFGQGTKVEIKR
notes: Human Fab from HuCAL Gold
As to B1, the binding result in assay [1] is listed as “binds”.

B2: TP-2A8 (Fab, V domains shown)
VH: QVQLVESGGGLVQPGGSLRLSCAASGFTFRSYGMSWVRQAPGKGLEWVSSIRGSSSSTYYADSVKGRFTISRDNSKNTLYLQMNSLRAEDTAVYYCARKYRYWFDYWGQGTLVTVSS
VL: DIELTQPPSVSVAPGQTARISCSGDNLRNYYAHWYQQKPGQAPVVVIYYDNNRPSGIPERFSGSNSGNTATLTISGTQAEDEADYYCQSWDDGVPVFGGGTKLTVLG
notes: Human Fab from HuCAL Gold; also called Fab-2A8; TP-2A8-Fab
In the case of B2, the binding result in assay [1] is given as “binds”.

B3: TP-2G6 (Fab, V domains shown)
VH: QVQLQQSGPGLVKPSQTLSLTCAISGDSVSSSSAAWSWIRQSPGRGLEWLGIIYYRSKWYNDYAVSVKSRITINPDTSKNQFSLQLNSVTPEDTAVYYCARHSMVGFDVWGQGTLVTVSS
VL: DIVLTQSPATLSLSPGERATLSCRASQYVTSSYLAWYQQKPGQAPRLLIYGSSRATGVPARFSGSGSGTDFTLTISSLEPEDFATYYCQQYSSSPITFGQGTKVEIKR
notes: Human Fab from HuCAL Gold, purified over Ni-NTA; also called 2G6-Fab
B3: the EC50 in assay [2] worked out at 480 pM; with マウスTFPI(R&D System) [3], 5180 pM.

B4: 2G6−IgG (antibody, V domains shown)
VH: B3 VH
VL: B3 VL
notes: also called IgG-2G6; 2G6-IgG
Regarding B4, the results for the “fold change of EC50 against 2G6-Fab” value (in the assay with マウスTFPI(R&D System) [4]; in assay [5]) were 10 fold and 2 fold, respectively. Besides, the figures for the EC50 (in assay [2]; with マウスTFPI(R&D System) [3]) were 220 pM and 510 pM, respectively.

The record behind these values is patent publication JP2018038398A (dated 2018).
